Results reported in patent US20170190787A1 (INSERM INSTITUT NATIONAL DE LA SANT ET DE LA RECHERCHE M …, published 2017).

B1: biparatopic single domain antibody D4E (D10 - 4x(G4S) linker - E10) (bispecific antibody)
chain: EVQLQESGGGLVQAGGSLRLSCAVSISRTIFSLYAMEWYRQPPGKQRDLVARIYRSGDTNYADSVKGRFTISRDNAKNTVYLQMNSLKPEDTGVYYCNSPAQDWPWGQGTQVTVSSAAAGGGGSGGGGSGGGGSGGGGSMAQVQLQESGGGLAQAGGSLRLSCAASGRTLSSYDMGWFRQAPGKEREFVTAINWGDLSTYYADSVKGRFTISRDNAKNTVYLQMNSLKPEDTAVYYCAARLRYTVSDPIFSRPDRYNYWGQGTQVTVSSAAAEQKLISEEDLNGAAHHHHHHGS
notes: also called bisdAb D4E
B2: biparatopic single domain antibody D2E (D10 - 2x(G4S) linker - E10) (bispecific antibody)
chain: EVQLQESGGGLVQAGGSLRLSCAVSISRTIFSLYAMEWYRQPPGKQRDLVARIYRSGDTNYADSVKGRFTISRDNAKNTVYLQMNSLKPEDTGVYYCNSPAQDWPWGQGTQVTVSSAAAGGGGSGGGGSMAQVQLQESGGGLAQAGGSLRLSCAASGRTLSSYDMGWFRQAPGKEREFVTAINWGDLSTYYADSVKGRFTISRDNAKNTVYLQMNSLKPEDTAVYYCAARLRYTVSDPIFSRPDRYNYWGQGTQVTVSSAAAEQKLISEEDLNGAAHHHHHHGS
notes: also called bisdAb D2E
B3: biparatopic single domain antibody D6E (D10 - 6x(G4S) linker - E10) (bispecific antibody)
chain: EVQLQESGGGLVQAGGSLRLSCAVSISRTIFSLYAMEWYRQPPGKQRDLVARIYRSGDTNYADSVKGRFTISRDNAKNTVYLQMNSLKPEDTGVYYCNSPAQDWPWGQGTQVTVSSAAAGGGGSGGGGSGGGGSGGGGSGGGGSGGGGSMAQVQLQESGGGLAQAGGSLRLSCAASGRTLSSYDMGWFRQAPGKEREFVTAINWGDLSTYYADSVKGRFTISRDNAKNTVYLQMNSLKPEDTAVYYCAARLRYTVSDPIFSRPDRYNYWGQGTQVTVSSAAAEQKLISEEDLNGAAHHHHHHGS
notes: also called bisdAb D6E

Legend:
[1] = biological target: T1, EGFR fused to SNAP-tag, expressed on transfected HEK293T cells (UniProt P00533 25-1210, terbium cryptate donor fluorochrome (SNAP-Tb) covalently on the SNAP-tag); assay: time resolved fluorescence (HTRF) on EGFR-ST transfected HEK293T cells; apparent affinity
T1 construct: whole, on cells; also called EGFR-ST; ErbB1-ST; not shown: SNAP-tag and FLAG tag (Cisbio plasmid)

[2] = biological target: T1, EGFR fused to SNAP-tag, expressed on …; assay: HTRF on living cells; D4E in the presence of a large amount of monovalent D10 blocking the D10 epitope
[3] = biological target: T1, EGFR fused to SNAP-tag, expressed on …; assay: HTRF on living cells; D4E in the presence of a large amount of monovalent E10 blocking the E10 epitope

Row | Binder | Kd [1] | Kd [2] | Kd [3]
1 | B1 | 6 nM | 100 nM | 22 nM
2 | B2 | 6 nM |  | 
3 | B3 | 6 nM |  | 
